Assay results published in article PMC7948409.

How the values were obtained:
[1] = molecular target: F-actin (actin filaments) from rabbit leg and back muscle (rabbit) (UniProt P68135); assay: single-molecule TIRF microscopy; in vitro motility assay under TIRF; HMM (342.8 nM incubation) on TMCS glass; Alexa-488 phalloidin F-actin propelled with 1 mM MgATP; 5 nM Alexa-647 gelsolin; pCa 8.2; 23 °C
[2] = molecular target: F-actin (actin filaments) from rabbit leg and back muscle (rabbit) (UniProt P68135); assay: single-molecule TIRF microscopy; HMM (34.2 nM incubation) adsorbed on TMCS glass; rhodamine phalloidin F-actin (5 nM) held stationary in rigor, no MgATP; 5 nM Alexa-647 gelsolin in solution; no added Ca2+ (pCa > 9); 23 °C; 9 min observation
[3] = molecular target: F-actin (actin filaments) from rabbit leg and back muscle (UniProt P68135); assay: single-molecule TIRF microscopy; in vitro motility assay under TIRF; HMM (342.8 nM incubation) on TMCS glass; Alexa-488 phalloidin F-actin propelled with 1 mM MgATP; 5 nM Alexa-647 gelsolin; pCa 8.2; 23 °C; conditions: other: single-molecule TIRF microscopy

Q: Which gelsolin molecules bound per filament [1] does the source give for “Alexa-647-labeled gelsolin (His-tagged recombinant full-length human cytoplasmic gelsolin) (natural protein)” here?
A: The gelsolin molecules bound per filament was 1 per filament.

Q: And the percent of HMM-propelled actin filaments with bound labeled gelsolin [1]?
A: Its percent of HMM-propelled actin filaments with bound labeled gelsolin is 36.5%.

Q: What about the gelsolin attachments per filament during 9 min [2] of the same substance?
A: The gelsolin attachments per filament during 9 min was 1.7 per filament.

Q: How did the “percent of sliding filaments with bound gelsolin, corrected for the labeling efficiency” value [3] turn out when “Alexa-647-labeled gelsolin (His-tagged recombinant full-length human cytoplasmic gelsolin)” was run?
A: The value was “approximately 55% of all sliding filaments have bound gelsolin”.
